From patent US20180009892A1 (EUREKA THERAPEUTICS, published 2018)

B1: P601-65 (scFv, V domains shown)
VH: QVQLQQSGPGLVKPSQTLSLTCAISGDSVSSNSATWNWIRQSPSRGLEWLGRTYYRSKWYNDYAVSVKSRIIINPDTSKNQFSLQLNSVTPEDTAVYYCARGVRAFDIWGQGTTVTVSS
VL: QSVLTQPPSVSGTPGQRVTIFCSGGSNNIGRSSVYWYRQAAGTAPKLLIYKTDQRPSGVPDRFAASKSGASASLAISGLRSEDEADYHCATWDDSLSAVVFGGGTKLTVL
B2: P601-112 (scFv, V domains shown)
VH: EVQLVQSGGDLVQPGGSLRLSCAASGFTFSSYSMNWVRQAPGKGLEWVSSISSSSSYIYYADSVKGRFTISRDNAKNSLYLQMNSLRAEDTAVYYCARGLGGWTHDAFDIWGQGTTVTVSS
VL: QSALTQPASVSGSPGQSITISCTGTSSDVGGYNYVSWYQQHPGKAPKLMIYDVSKRPSGVSNRFSGSKSGNTASLTISGLQAEDEADYYCSSYTGRSTVFGGGTKLTVL
B3: P601-120 (scFv, V domains shown)
VH: EVQLVQSGGDLVQPGGSLRLSCAASGFTFSSYSMNWVRQAPGKGLEWVSSISSSSSYIYYADSVKGRFTISRDNAKNSLYLQMNSLRAEDTAVYYCARGLGGWTHDAFDIWGQGTTVTVSS
VL: QSALTQPASVSGSPGQSITISCTGTSSDVGGYNYVSWYQQHPGKAPKLMIYDVSNRPSGVSNRFSGSKSGNTASLTISGLQAEDEADYYCSSYTSSSTRVFGGGTKLTVL
B4: P601-109 (scFv, V domains shown)
VH: QMQLVQSGGDLVQPGGSLRLSCAASGFTFSSYSMNWVRQAPGKGLEWVSSISSSSSYIYYADSVKGRFTISRDNAKNSLYLQMNSLRAEDTAVYYCARGLGGWTHDAFDIWGQGTTVTVSS
VL: QSALTQPASVSGSPGQSITISCTGTSSDVGGYNYVSWYQQHPGKAPKLLIYEVSQRPSGVPDRFSGSKSGNTASLTVSGLQAEDEADYYCSSYAGDRDVFGTGTQLTVLS
B5: P601-110 (scFv, V domains shown)
VH: QVQLVQSGGDLVQPGGSLRLSCAASGFTFSSYSMNWVRQAPGKGLEWVSSISSSSSYIYYADSVKGRFTISRDNAKNSLYLQMNSLRAEDTAVYYCARGLGGWTHDAFDIWGQGTTVTVSS
VL: QSALTQPASVSGSPGQSITLSCTGTSSDVGGYNYVSWYQQHPGNGPKLIIYDVTKRPSGVSNRFSGSKSGNTAYLTISGLQAEDEADYYCASYTRSTTLVFGGGTKLTVL
B6: P601-103 (scFv, V domains shown)
VH: EVQLVQSGGDLVQPGGSLRLSCAASGFTFSSYSMNWVRQAPGKGLEWVSSISSSSSYIYYADSVKGRFTISRDNAKNSLYLQMNSLRAEDTAVYYCARGLGGWTHDAFDIWGQGTTVTVSS
VL: QSVLTQPASVSGSPGQSITISCTGTTSDVGGYNYVSWYQQHPGKAPKLMIYDVSKRPSGVSNRFSGSKSGNTASLTISGLQAEDEADYYCSSYTSSSTDVFGTGTKLTVL
B7: P601-66 (scFv, V domains shown)
VH: QVQLVQSGAEVKEPGASVKVSCKASGYTFRNSGITWVRQAPGQGLEWMGWINPNSGGAMYVDNFQGRATMTRDTSINTAYMELRSLSSDDTAVYYCARGMADLIDVFDIWGQGTLVTVSS
VL: TQPALTQPASVSGSPGQSITISCTGTSSDFGDYDYVSWYQQHPGKAPKLMIYDVSDRPSGVSNRFSGSKSGNTASLTISGLQAEDEADYFCSSFTTSSTLVFGGGTKLTVL
B8: P601-13 (scFv, V domains shown)
VH: EVQLVQSGAEVKKPGSSVKVSCKASGGTFSTFAINWVRQAPGQGLEWMGGVIPVSGTEDYSQKFQGRLSLTADESTGTAYMELSSLRSDDTAVYYCARDRSGRDWDYFDYWGQGTLVTVSS
VL: DIVMTQSPSSLSASVGDRVTITCQASQDISNYLNWYQQKPGKAPKLLIYDASNLETGVPSRFSGSGSGTDFIFTISSLQPEDIATYYCQQFDNLPYTFGQGTKVEIKR
B9: P601-153 (scFv, V domains shown, not shown: large carriers; small tags and cut ends)
VH: QMQLVQSGAEVKKPGASVKVSCKASGYTFTSYYMHWVRQAPGQGLEWMGIINPSGGSTSYAQKFQGRVTMTRDTSTSTVYMELSSLRSEDTAVYYCARGGYTGWSPSDPWGQGTLVTVSS
VL: QSALTQPASVSGSPGQSITISCTGTSSDVGGYNYVSWYQQHPGKAPKFMIYDVSKRPSGVSNRFSGSKSGNTASLTISGLQAEDEADYYCGSFTSSITYVFGTGTKVTVL
B10: P601-101 (scFv, V domains shown)
VH: EVQLVQSGNEVKRPGASVKVSCKASGHSFSTYGFSWVRQAPGQGLEWMGWISTYNGNTNYAQKLQGRVTMTTDTSTSTAYMELRSLRSDDTAVYYCARDYYSDSSGYWDDAFDIWGQGTLVTVSS
VL: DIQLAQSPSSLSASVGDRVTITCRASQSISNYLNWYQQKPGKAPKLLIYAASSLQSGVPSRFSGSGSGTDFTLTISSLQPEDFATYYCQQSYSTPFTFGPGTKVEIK
B11: P601-86 (scFv, V domains shown)
VH: QVTLKESGPTLLKPTQTLTLTCTFSGFSLSTRGVGVGWIRQPPGQALEWLTLIYWDDDKRYSPSLKSRLTITKDTSKNQVVLTMTNMESVDTATYYCAQQTMTGAFDIWGQGTTVTVSS
VL: DIQMTQSPSSVSASVGDRVTITCRASQGISTLLAWYQQKPGKAPKLLISSASSLQSGVPARFSGSGSGTDFTLTISSLQPEDFATYYCQQSYRAPTFGQGTKVEIKR
B12: P601-3 (scFv, V domains shown)
VH: QVTLKESGPTLVKPTQTLTLTCTFSGFSLNSFGVAVGWFRQPPGKALEWLGLIYWDDDRRYFPSLEGRLSITKDASDNNVVLTMMNVDPADTATYYCARTSPMVQGIANYYAMDVWGQGTTVTVSS
VL: not shown
B13: P601-137 (scFv, V domains shown)
VH: QVQLQQSGAEVKKPGASVKVSCKASGYTFSRYYIHWVRQAPGQGLEWMGIINTDGGTTTYAQKFQGRLTMTRDTSTSTVYMELSSLRSDDTAVYYCARDYGTIDARRFDYWGQGTLVTVSS
VL: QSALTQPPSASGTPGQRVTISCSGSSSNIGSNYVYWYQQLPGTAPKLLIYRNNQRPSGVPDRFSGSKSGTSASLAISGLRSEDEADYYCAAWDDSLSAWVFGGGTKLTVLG
B14: P601-136 (scFv, V domains shown)
VH: QVQLVQSGAEVKKPGASVKVSCKASGYTFSRYYIHWVRQAPGQGLEWMGLINPGGGSTNYAQKFQGRVTMTRDTSTNTVYLELSSLRSDDTAVYYCARDYGTIDARRFDFWGQGTLVTVSS
VL: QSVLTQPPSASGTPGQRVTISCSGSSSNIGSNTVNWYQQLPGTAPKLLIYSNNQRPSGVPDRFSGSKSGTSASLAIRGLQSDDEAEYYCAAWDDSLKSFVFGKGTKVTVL
B15: P601-6 (scFv, V domains shown)
VH: EVQLVESGGGLVKPGGSLKLSCAASGFTFSDYYMGWVRQAPGKGLKWLSYISDRAHTIYDTHSVKGRFTISRDDAKSSLYLRMNNLRVEDTAVYYCARAVGAGEGFDYWCQGTLVTVSS
VL: DIQMTQSPSSLSASVGDRVTITCQASQDIRNYLNWYQQKPGKAPKLLIYAASNLETGVPSRFSGSGSGTDFTFTISSLQPEDIATYYCQQDDNLPLTFGGGTKLEIK
B16: P601-149 (scFv, V domains shown, not shown: large carriers; small tags and cut ends)
VH: EAQLVESGGGLVKPGGSLRLSCAASGFTFSDYYMGWVRQAPGKGLKWLSYISDRAHTIYDTDSVKGRFTISRDDAKSSLYLRMNNLRVEDTAVYYCARAVGAGEGFDYWGQGTLVTVSS
VL: DIQLTQSPSSLSASVGDRVTITCQASQDVRNYLNWYQQKPGKAPNLLIYDATNLESGVPSRFSGSGSGTDFTFTISSLQPEDFATYYCQQYDNLPLSFGGGTKVEIK
B17: P601-5 (scFv, V domains shown)
VH: EVQLVESGGGLVKPGGSLRLSCAASGFTFSDYYMGWVRQAPGKGLKWLSYISDRAHTIYDTDSVKGRFTISRDDAKSSLYLRMNNLRVEDTAVYYCARAVGAGEGFDYWGQGTLVTVSS
VL: not shown
B18: P601-87 (scFv, V domains shown)
VH: QVQLQESGPGLVKSSETLSLTCTVSGGSMNNYYWSWIRQPAGKGLEWMGRIYSSGSTNYNPALKSRVTMSVDTSKNQFSLNLSSVTAADTAIYYCARASWSGTYWALFDYWGQGTLVTVSS
VL: ETTLTQSPAFMSATPGDKVNISCKASQDIDDDLNWYQQKPGEAPILIIQEATTLVPGIPPRFSGSGFGTDFTLTINSMQSEDVAYYFCLQHDNFPPTFGQGTKVEIK
B19: P601-2 (scFv, V domains shown)
VH: QVTLKESGPTLVKPTQTLTLTCTFSGFSLSSFGVAVGWFRQPPGKALEWLGLIYWDDDKRYSPSLKTRLTITKDTSKNQVVLTMTNMDPVDTATYYCAHKGGIATTGSPNWFDPWGQGTLVTVSS
VL: not shown
B20: P601-130 (scFv, V domains shown)
VH: EVQLVETGGGLVKPGGSLRLSCEASGFSLSSYSMNWVRQAPGKGLEWVSSISSSSTHIYYADSLKGRFTISRDNAKNSLFLQMDNLRAEDTAVYYCARATIGFDYWGQGTLVTVSS
VL: QSVLTQPPSVSGAPGQRVTISCTGSSSNIGAGYDVHWYQQLPGTAPKLLIYGNSNRPSGVPDRFSGSKSGTSASLAITGLQAEDEADYYCQSYDSSLSGYVFGTGTKLTVL
B21: P601-81 (scFv, V domains shown)
VH: EVQLVESGGGVVRPGGSLRLSCATSGFNFDNYGLSWVRQGPGKGLEWMGFIYKSVNTNYSPSLKSRLTISMDTSKNQFSLNLASVTTADTAIYYCARGKVETSVVDYWGQGTLVTVSS
VL: NFMLTQPRSVSESPGKTVTISCTGNGGRVANNYVQWYQQRPGSAPTTVIYEDNQRPSGVPARFSGSIDSSSNSASLTISGLKTDDEADYYCQSYDISNQRVFGGGTKLTVL
B22: P601-40 (scFv, V domains shown)
VH: QVQLQQSGAEVKKPGASVKVSCKASGYTSTNYGISWVRQAPGQGLEWMGWISTYNGNTNYAQKLQGRVTMTTDTSTSTAYMELRSLRSDDTAVYYCARDYYSDSSGYWDDAFDIWGQGTMVTVSS
VL: DIQLTQSPSSLSASVGDRVTITCRASQNINNYLNWYQQKPGKAPKLLLYAASSLQSGVPSRFSGSGSGTEFTLTISSLHPEDFATYYCQQSYNTPFTFGPGTKVDIKR

Legend:
human ROR2-ECD = biological target: T1, human ROR2-ECD (human, UniProt Q01974 34-403); experiment: protein ELISA, phage
T1 construct: extracellular domain; also called hROR2

[1] = biological target: T2, human ROR1 extracellular domain (ECD) protein (human, UniProt Q01973 30-406); experiment: competitive phage ELISA: soluble ROR1 against ROR1-coated plate
T2 construct: also called hROR1-ECD; human ROR1-ECD
Experimental: Purified phage antibodies were first diluted serially in PBST buffer, and tested for binding to a ROR1-coated plate. The dilution that gave 50-80% saturating signal was used in the solution binding assay in which phage were first incubated with increasing concentration of ROR1 for one to two hours, and then transferred to a ROR1-coated plate for 10-15 minutes to capture the unbound phage.

T1 sequence (Q01974 34-403): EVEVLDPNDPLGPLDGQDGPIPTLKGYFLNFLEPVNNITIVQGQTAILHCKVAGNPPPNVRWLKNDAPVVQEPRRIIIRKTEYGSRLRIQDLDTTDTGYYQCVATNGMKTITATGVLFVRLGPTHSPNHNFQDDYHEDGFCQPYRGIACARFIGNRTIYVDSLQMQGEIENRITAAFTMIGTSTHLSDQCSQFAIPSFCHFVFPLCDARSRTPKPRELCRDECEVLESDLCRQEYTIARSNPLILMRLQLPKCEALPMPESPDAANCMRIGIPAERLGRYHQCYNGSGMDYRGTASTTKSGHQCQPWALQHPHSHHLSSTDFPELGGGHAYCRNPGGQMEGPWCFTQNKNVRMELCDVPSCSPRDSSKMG
T2 sequence (Q01973 30-406 limits assumed): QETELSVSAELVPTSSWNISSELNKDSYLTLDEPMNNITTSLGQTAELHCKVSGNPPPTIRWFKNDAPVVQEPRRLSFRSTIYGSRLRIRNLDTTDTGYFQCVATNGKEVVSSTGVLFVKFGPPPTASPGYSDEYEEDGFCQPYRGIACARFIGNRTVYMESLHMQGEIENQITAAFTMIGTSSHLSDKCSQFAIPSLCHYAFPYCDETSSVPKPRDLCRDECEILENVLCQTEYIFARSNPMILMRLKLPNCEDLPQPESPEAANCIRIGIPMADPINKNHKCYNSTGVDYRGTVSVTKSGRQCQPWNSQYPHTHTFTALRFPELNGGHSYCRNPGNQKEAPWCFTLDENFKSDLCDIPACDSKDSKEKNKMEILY

Binder | binding result (human ROR2-ECD) | IC50 [1]
B1 | no binding | 4.23 nM
B2 | no binding | 2.89 nM
B3 | no binding | 1.92 nM
B4 | no binding | 0.22 nM
B5 | no binding | 4.57 nM
B6 | no binding | 8.72 nM
B7 |  | 4.05 nM
B8 | no binding | 1.21 nM
B9 |  | 1.53 nM
B10 | no binding | 1.5 nM
B11 | no binding | 1.84 nM
B12 | no binding | 
B13 | no binding | 1.82 nM
B14 | no binding | 3.02 nM
B15 |  | 2.12 nM
B16 |  | 2.76 nM
B17 | no binding | 
B18 | no binding | 3.86 nM
B19 | no binding | 
B20 | no binding | 3.08 nM
B21 | no binding | 2.76 nM
B22 | no binding | 0.2 nM
